Measurements: US20030177513A1

Target: thrombin
Experiment: cell-based or functional assay

- ATIII activity by thrombin inhibition (two-stage colorimetric endpoint assay), milk at day 5: 20.5 U/ml
- ATIII activity by thrombin inhibition (two-stage colorimetric endpoint assay), milk at day 9: 14.6 U/ml
Substance: recombinant human Antithrombin III (ATIII) in the milk of the cloned transgenic goat CFF6-1 (from UniProt P01008 33-464)
